Targets include Abl(Y253F)(h) (human) (UniProt P00519); BRK(h) (human) (UniProt Q13882); BTK(R28H)(h) (human) (UniProt Q06187); BTK(h) (human) (UniProt Q06187); CSK(h) (human) (UniProt P41240); DAPK2(h) (human) (UniProt Q9UIK4); DMPK(h) (human) (UniProt Q09013); EGFR(L861Q)(h) (human) (UniProt P00533); MEK1(h) (human) (UniProt Q02750); MRCKα(h) (human) (UniProt Q5VT25); Met(Y1248C)(h) (human) (UniProt P08581); Met(h) (human) (UniProt P08581); Pim-1(h) (human) (UniProt P11309); ROCK-II(h) (human) (UniProt O75116); Rsk3(h) (human) (UniProt Q15349); Rsk4(h) (human) (UniProt Q9UK32); SRPK2(h) (human) (UniProt P78362); Tie2(Y897S)(h) (human) (UniProt Q02763); WNK3(h) (human) (UniProt Q9BYP7).

What all share (experiment): cell-based or functional assay
The target in the next experiment is T1, EphA8(h) (human) (UniProt P29322).
T1 sequence (looked up): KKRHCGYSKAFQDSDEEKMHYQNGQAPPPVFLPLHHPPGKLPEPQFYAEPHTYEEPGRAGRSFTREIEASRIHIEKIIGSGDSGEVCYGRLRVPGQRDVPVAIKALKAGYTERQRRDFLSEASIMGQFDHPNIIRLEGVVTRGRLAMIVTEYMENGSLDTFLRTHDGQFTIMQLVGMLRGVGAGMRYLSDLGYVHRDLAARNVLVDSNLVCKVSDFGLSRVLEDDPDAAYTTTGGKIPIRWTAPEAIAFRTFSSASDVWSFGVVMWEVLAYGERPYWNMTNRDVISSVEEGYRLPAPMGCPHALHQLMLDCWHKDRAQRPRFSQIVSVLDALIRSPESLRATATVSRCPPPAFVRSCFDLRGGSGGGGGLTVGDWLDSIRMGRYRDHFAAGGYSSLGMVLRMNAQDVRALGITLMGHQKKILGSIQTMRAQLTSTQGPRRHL

The next experiment has as its target T2, Fms(h) (human) (UniProt P07333).
T2 sequence (looked up): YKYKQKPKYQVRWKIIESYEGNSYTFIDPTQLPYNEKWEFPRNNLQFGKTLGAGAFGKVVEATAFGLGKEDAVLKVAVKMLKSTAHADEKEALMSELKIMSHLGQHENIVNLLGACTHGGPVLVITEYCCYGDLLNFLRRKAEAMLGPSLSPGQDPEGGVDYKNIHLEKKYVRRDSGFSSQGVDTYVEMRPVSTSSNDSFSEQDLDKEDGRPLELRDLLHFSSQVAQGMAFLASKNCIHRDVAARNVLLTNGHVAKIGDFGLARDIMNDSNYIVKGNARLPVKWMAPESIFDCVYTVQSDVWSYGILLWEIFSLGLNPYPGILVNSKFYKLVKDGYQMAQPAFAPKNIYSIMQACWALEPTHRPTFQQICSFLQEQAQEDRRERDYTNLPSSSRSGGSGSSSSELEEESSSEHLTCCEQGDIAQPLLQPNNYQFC

A further experiment concerns the target T3, PDK1(h) (human) (UniProt O15530).
T3 sequence (looked up): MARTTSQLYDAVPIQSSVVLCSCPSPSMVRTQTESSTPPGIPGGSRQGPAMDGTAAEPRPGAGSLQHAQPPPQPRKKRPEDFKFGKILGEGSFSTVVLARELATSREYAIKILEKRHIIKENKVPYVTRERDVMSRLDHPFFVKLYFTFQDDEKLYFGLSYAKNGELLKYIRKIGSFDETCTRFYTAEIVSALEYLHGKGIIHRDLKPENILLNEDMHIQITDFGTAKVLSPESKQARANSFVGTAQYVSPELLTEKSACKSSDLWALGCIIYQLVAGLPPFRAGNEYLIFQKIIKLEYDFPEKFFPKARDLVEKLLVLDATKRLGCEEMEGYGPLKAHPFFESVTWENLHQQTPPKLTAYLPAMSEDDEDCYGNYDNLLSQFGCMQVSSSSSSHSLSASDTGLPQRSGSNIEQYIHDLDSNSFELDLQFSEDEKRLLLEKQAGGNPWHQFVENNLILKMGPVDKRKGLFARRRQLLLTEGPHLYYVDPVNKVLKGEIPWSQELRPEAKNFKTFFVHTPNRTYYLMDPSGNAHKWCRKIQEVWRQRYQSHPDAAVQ

A further experiment has as its target T4, SGK3(h) (human) (UniProt Q96BR1).
T4 sequence (looked up): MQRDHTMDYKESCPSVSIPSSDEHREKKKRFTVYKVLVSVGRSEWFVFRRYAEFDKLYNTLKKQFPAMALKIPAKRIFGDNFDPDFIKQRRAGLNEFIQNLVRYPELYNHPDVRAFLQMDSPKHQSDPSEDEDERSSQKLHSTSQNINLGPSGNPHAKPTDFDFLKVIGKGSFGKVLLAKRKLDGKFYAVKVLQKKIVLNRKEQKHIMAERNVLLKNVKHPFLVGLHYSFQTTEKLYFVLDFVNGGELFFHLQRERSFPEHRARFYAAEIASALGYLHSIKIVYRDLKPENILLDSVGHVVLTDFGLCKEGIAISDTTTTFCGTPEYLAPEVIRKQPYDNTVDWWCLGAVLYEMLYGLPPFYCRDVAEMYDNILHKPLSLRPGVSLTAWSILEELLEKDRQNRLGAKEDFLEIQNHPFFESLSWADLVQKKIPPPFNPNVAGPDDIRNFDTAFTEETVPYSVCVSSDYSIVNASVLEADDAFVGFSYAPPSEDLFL

Sequence of Abl(Y253F)(h) (human) (P00519 27-1130 Y253F limits assumed): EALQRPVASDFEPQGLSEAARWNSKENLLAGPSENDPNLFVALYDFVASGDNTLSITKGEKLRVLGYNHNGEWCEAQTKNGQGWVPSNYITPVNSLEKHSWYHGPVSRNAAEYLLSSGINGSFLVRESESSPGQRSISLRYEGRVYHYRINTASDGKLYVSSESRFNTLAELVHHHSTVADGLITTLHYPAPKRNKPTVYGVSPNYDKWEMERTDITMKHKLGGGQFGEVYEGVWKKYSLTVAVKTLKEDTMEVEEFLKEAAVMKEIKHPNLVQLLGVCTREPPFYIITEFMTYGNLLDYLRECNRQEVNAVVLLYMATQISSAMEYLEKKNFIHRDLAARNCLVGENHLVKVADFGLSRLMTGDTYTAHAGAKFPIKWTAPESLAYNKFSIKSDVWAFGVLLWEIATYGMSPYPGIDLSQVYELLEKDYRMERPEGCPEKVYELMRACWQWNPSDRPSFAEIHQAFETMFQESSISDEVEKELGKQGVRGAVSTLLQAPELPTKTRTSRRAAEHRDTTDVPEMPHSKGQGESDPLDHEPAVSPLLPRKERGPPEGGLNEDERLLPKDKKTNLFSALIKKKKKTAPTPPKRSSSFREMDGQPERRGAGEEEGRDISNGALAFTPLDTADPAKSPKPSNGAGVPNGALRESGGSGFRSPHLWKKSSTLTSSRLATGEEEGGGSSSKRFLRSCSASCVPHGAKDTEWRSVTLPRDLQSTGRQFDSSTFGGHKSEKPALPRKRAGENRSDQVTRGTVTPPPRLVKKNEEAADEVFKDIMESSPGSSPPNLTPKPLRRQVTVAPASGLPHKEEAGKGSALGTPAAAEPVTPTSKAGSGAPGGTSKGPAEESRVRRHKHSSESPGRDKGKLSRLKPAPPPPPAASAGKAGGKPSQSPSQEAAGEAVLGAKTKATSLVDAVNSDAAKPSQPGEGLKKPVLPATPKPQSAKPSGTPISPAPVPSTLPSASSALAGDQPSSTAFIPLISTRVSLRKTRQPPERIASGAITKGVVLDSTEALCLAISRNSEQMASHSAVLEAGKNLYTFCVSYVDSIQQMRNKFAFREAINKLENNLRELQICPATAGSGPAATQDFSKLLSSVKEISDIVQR
Sequence of Rsk4(h) (human) (Q9UK32 whole entry): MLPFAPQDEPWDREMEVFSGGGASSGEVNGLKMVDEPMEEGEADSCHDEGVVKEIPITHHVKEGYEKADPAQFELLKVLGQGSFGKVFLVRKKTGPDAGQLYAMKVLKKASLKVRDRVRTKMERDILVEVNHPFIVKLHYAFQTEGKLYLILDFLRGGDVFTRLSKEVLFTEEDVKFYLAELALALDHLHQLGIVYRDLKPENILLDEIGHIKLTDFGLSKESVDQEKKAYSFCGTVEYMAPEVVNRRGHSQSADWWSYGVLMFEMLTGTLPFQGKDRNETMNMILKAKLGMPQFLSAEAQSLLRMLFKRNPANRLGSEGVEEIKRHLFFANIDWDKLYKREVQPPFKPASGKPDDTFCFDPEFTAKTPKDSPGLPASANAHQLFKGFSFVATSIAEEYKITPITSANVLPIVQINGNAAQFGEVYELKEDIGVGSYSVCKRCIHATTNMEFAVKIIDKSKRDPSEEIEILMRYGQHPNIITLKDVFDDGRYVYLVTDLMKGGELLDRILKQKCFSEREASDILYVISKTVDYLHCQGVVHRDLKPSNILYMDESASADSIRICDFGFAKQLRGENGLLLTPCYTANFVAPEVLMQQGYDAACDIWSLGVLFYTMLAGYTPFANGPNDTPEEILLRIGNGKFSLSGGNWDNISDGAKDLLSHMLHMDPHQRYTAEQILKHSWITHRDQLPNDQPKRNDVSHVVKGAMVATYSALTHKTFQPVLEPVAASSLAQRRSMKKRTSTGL
Sequence of DAPK2(h) (human) (Q9UIK4 whole entry): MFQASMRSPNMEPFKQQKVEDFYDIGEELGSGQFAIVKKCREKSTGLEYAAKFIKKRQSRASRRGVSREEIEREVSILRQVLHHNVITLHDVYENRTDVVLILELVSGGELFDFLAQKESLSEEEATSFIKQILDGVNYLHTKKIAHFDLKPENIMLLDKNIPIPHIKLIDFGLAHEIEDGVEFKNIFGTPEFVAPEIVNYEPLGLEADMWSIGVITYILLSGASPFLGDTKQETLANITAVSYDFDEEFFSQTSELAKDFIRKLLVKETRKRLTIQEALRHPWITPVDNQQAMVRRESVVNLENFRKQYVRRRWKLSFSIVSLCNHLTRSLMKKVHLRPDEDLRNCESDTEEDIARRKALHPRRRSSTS
Sequence of DMPK(h) (human) (Q09013 whole entry): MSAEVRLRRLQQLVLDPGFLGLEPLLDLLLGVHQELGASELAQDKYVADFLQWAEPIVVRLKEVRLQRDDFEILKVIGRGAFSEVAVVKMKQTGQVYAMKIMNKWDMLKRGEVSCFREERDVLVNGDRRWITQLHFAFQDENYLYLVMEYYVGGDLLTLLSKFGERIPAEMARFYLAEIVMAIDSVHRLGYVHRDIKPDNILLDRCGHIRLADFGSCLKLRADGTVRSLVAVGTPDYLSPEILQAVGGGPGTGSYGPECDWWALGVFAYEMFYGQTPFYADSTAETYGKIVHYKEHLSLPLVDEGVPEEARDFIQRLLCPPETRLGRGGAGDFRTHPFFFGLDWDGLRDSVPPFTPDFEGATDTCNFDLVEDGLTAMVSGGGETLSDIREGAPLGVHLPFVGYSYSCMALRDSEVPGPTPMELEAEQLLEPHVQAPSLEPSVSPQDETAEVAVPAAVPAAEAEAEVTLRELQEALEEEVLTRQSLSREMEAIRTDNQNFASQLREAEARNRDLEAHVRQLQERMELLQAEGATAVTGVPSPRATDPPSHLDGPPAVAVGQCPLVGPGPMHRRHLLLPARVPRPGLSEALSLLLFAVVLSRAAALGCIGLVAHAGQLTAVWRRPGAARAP
Sequence of CSK(h) (human) (P41240 whole entry): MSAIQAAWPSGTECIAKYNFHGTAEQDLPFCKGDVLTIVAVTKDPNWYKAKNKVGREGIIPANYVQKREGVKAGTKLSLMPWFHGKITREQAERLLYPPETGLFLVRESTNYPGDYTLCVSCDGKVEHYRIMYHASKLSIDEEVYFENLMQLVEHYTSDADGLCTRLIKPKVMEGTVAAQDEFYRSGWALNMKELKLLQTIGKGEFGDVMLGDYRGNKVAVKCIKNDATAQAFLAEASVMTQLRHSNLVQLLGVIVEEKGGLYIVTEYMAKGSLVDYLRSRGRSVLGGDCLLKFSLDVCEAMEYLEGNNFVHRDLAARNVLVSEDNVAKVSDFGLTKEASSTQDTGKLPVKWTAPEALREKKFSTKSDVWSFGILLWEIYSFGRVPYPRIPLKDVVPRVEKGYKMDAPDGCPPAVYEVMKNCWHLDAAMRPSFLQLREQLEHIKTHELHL
Sequence of WNK3(h) (human) (Q9BYP7 1-434 limits assumed): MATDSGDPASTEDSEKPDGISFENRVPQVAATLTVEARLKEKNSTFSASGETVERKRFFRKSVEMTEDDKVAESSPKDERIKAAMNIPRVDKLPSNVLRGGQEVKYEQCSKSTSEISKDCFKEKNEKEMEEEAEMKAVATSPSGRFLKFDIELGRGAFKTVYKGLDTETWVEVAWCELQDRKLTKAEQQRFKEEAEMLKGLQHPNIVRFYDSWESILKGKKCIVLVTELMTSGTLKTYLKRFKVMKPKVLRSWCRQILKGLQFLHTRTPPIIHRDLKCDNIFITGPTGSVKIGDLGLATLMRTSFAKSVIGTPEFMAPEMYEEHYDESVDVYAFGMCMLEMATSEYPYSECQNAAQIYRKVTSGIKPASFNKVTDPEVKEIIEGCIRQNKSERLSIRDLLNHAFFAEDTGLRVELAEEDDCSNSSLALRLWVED
Sequence of ROCK-II(h) (human) (O75116 11-552 limits assumed): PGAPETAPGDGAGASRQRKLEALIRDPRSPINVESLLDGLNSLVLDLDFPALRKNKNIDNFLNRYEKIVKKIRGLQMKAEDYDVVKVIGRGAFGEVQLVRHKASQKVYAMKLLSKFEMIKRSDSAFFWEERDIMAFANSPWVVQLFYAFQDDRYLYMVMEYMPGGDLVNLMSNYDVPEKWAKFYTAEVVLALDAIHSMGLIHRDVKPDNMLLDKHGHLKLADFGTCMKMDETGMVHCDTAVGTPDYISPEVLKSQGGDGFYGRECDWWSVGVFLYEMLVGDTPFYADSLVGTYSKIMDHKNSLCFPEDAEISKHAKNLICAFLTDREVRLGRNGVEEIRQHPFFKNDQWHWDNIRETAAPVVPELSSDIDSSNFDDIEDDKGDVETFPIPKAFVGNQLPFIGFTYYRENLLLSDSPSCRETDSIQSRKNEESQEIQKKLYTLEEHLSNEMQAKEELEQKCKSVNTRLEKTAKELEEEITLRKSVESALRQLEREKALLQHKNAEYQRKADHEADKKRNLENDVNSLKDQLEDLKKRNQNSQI
Sequence of BTK(h) (human) (Q06187 whole entry): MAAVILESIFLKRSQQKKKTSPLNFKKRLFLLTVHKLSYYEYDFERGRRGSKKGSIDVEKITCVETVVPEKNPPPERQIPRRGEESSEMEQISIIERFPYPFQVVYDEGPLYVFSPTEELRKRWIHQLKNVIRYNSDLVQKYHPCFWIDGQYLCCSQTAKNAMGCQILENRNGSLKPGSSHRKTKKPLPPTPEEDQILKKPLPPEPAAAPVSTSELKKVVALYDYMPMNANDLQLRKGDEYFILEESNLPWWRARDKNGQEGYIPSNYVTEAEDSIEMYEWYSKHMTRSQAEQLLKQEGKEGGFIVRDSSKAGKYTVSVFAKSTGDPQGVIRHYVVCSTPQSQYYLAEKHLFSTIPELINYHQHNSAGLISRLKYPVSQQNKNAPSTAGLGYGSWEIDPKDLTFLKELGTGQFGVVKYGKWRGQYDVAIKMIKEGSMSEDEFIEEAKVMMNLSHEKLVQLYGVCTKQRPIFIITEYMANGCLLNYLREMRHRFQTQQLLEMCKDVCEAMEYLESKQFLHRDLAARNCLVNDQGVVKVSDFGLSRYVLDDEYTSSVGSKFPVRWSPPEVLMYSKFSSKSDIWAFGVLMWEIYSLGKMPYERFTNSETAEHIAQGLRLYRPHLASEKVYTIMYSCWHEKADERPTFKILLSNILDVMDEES
Sequence of BTK(R28H)(h) (human) (Q06187 whole entry R28H): as the sequence (Q06187 whole entry) above, with R28H counted along it

As for MMI-0500 (peptide), the % activity, 100 µM with Abl(Y253F)(h) (human) was 29%; in the experiment with BRK(h) (human), 41%; with BTK(R28H)(h) (human) it was 10%; with BTK(h) (human), 18%; with CSK(h) (human), 2%; in the experiment with DAPK2(h) (human) it was 3%. Besides, the % activity, 100 µM was determined as 12% in the experiment with DMPK(h) (human); 15% with EGFR(L861Q)(h) (human); 337% with EphA8(h) (human); 14% with Fms(h) (human); 21% with MEK1(h) (human); 5% with MRCKα(h) (human). Besides, the % activity, 100 µM in the experiment with Met(Y1248C)(h) (human) is 73%; with Met(h) (human), 27%; in the experiment with PDK1(h) (human), 178%; with Pim-1(h) (human), 0%; in the experiment with ROCK-II(h) (human), 2%; in the experiment with Rsk3(h) (human), 23%. Moreover, the % activity, 100 µM with Rsk4(h) (human) was 29%; with SGK3(h) (human) it was -3%; with SRPK2(h) (human) it was 80%; in the experiment with Tie2(Y897S)(h) (human), 80%; with WNK3(h) (human), 9%.

Source of the values: patent US20140072613A1, “Compositions and Methods for Treating Cutaneous Scarring” (priority 2012, published 2014).
